The source of these data is publication PMC2192373.

The test has as its target Taxol-stabilized microtubules prepared from pure bovine tubulin (bovine) (UniProt Q6B856). The experiment in a line: co-sedimentation.

As for “GST-DmINCENP (full-length Drosophila inner centromere protein fused to GST) (natural protein)”, the percent of the added protein that cosediments is 64%.
